Publication PMC3398199 (Molecular Cell, 2012)

Biological target: His-tagged human recombinant full-length NEMO (human, UniProt Q9Y6K9 1-419)
Assay: SEC

Chain of His-tagged human recombinant full-length NEMO (Q9Y6K9 whole entry): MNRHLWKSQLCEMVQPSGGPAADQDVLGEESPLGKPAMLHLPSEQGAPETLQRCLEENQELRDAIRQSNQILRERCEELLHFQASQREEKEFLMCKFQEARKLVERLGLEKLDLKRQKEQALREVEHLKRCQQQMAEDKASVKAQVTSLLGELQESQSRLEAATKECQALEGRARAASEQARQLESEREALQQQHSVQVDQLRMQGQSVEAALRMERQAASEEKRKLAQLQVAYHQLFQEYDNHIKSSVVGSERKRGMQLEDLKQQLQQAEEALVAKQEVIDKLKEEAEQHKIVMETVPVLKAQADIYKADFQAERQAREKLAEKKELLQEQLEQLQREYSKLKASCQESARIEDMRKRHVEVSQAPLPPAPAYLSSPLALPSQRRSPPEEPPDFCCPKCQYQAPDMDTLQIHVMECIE

binding result: binds
B1: recombinant FL-human IκBα (natural protein, UniProt P25963 1-317, looked up)
chain: MFQAAERPQEWAMEGPRDGLKKERLLDDRHDSGLDSMKDEEYEQMVKELQEIRLEPQEVPRGSEPWKQQLTEDGDSFLHLAIIHEEKALTMEVIRQVKGDLAFLNFQNNLQQTPLHLAVITNQPEIAEALLGAGCDPELRDFRGNTPLHLACEQGCLASVGVLTQSCTTPHLHSILKATNYNGHTCLHLASIHGYLGIVELLVSLGADVNAQEPCNGRTALHLAVDLQNPDLVSLLLKCGADVNRVTYQGYSPYQLTWGRPSTRIQQQLGQLTLENLQMLPESEDEESYDTESEFTEFTEDELPYDDCVFGGQRLTL
